Where no end group is shown, it is not given here.
B1: AF488-labeled GR10 (peptide)
peptide: GRGRGRGRGRGRGRGRGRGRKC(Alexa Fluor 488 C5‑maleimide)
notes: poly-GR, 10 repeats, plus C-terminal K and C; also called AF488-GR10; DPR-AF488; source: synthetic peptide (Genscript)
B2: AF488-labeled PR10 (peptide)
peptide: PRPRPRPRPRPRPRPRPRPRKC(Alexa Fluor 488 C5‑maleimide)
notes: poly-PR, 10 repeats, plus C-terminal K and C; also called AF488-PR10; DPR-AF488; source: synthetic peptide (Genscript)
B3: PR10, synthetic poly-proline-arginine 10-mer dipeptide repeat protein with C-terminal lysine and cysteine (peptide)
peptide: PRPRPRPRPRPRPRPRPRPRKC
notes: C9orf72 repeat-associated non-AUG translation product poly-PR, 10 repeats, plus C-terminal K and C; unlabelled form; also called R-DPR; source: synthetic peptide (Genscript; 21st Century Biochemicals)
B4: GR10, synthetic poly-glycine-arginine 10-mer dipeptide repeat protein with C-terminal lysine and cysteine (peptide)
peptide: GRGRGRGRGRGRGRGRGRGRKC
notes: C9orf72 repeat-associated non-AUG translation product poly-GR, 10 repeats, plus C-terminal K (solubility) and C (labelling); unlabelled form, used in the FRET, GFP-Trap, sedimentation and import assays; also called poly-GR; R-DPR; source: synthetic peptide (Genscript; 21st Century Biochemicals)

Experiments:
[1] = target: T1, biotinylated WT importin β-Avitag (human, UniProt Q14974 1-876, biotin on the Avitag); assay: bead halo assay; biotinylated importin β or biotinylated BSA on neutravidin polystyrene beads; fluorescent prey (200 nM AF488-DPR, Rango) in binding buffer with assay buffer (EDTA, BSA, NaCl, Tween); room temperature, at least 30 min; confocal rim vs. background ratio; conditions: both partners purified
T1 construct: WT human importin β (KPNB1) in pRSET A with C-terminal Avitag; Called WT; Held on neutravidin beads by the biotin; also called biotinylated importin β; importin β-coated beads; source: E. coli BL21DE3, co-expressed with BirA biotin ligase, purified (Ni-NTA)

[2] = target: T2, 6His-S-Importin β(1-876), full-length WT human importin β (human, UniProt Q14974 1-876); assay: FRET or BRET; Rango FRET sensor in solution: 20 nM Rango-2/α1 (pK188) and 50 nM importin β (pKW485) in TBS pH 7.4, 0.01% Tween-20, with increasing concentrations of DPR 10-mers or ZZ-RanQ69L-GTP; ratio of acceptor (535 nm) to donor (480 nm) emission; non-linear fit with one binding site; conditions: both partners purified
T2 construct: human importin β (KPNB1), full length, residues 1-876, expressed from pET30a; Construct from Chi et al., 1997; also called KPNB1; WT importin β (pKW485)
T2 sequence (Q14974 whole entry, the tested form may be a part): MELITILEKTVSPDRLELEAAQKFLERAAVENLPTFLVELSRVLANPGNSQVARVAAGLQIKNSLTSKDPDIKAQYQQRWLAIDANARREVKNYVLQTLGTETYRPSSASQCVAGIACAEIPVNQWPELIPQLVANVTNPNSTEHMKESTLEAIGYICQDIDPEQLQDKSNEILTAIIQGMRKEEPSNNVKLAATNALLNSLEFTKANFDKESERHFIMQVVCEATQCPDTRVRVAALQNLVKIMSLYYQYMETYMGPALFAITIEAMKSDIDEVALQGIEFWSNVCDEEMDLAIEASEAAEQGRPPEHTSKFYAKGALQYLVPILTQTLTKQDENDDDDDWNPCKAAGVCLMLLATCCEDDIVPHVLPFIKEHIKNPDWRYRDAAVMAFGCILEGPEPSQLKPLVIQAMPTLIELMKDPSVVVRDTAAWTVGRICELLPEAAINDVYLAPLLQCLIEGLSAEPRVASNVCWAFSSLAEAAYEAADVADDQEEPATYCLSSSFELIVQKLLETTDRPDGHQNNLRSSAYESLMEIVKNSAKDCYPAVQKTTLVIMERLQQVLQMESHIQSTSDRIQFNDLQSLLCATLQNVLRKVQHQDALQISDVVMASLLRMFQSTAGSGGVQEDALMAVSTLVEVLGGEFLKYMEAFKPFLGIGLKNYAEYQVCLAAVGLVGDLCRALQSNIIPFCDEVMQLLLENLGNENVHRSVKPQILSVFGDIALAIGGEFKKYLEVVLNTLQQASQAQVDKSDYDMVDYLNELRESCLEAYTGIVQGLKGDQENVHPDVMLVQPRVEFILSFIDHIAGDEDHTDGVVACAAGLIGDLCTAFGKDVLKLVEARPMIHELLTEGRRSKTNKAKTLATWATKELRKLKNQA

T1 sequence (Q14974 whole entry): as the sequence (Q14974 whole entry, the tested form may be a part) above

Row | Binder | halo intensity (rim vs. background) relative to control beads [1] | binding result [2]
1 | B1 | ~2 fold | 
2 | B2 | ~2 fold | 
3 | B3 |  | binds
4 | B4 |  | binds

From paper PMC7051184, “C9orf72 arginine-rich dipeptide repeat proteins disrupt karyopherin-mediated nuclear import” (eLife, 2020)
